B1: 22166 (protein)
chain: MALPVTALLLPLALLLHAARPEVQLQESGGGLVQPGGSLRLSCAASGRTFSSLFMGWFRQAPGKERELVAAISRYSLYTYYADSVKGRFTISADNAKNAVYLQMNSLKPEDTAVYYCASKLEYTSNDYDSWGQGTQVTVSSGTGGGGSGGGGSGGGGSEFDIQMTQSPSSLSASVGDRVTITCKASDHINNWLAWYQQKPGQAPKLLIYGATTLETGVPSRFSGSGSGTDYTLTISSLQPEDFATYYCQQSWNTPWTFGQGTKLEIKRLEIQNPDPAVYQLRDSKSSDKSVCLFTDFDSQTNVSQSKDSDVYITDKCVLDMRSMDFKSNSAVAWSNKSDFACANAFNNSIIPEDTFFPSSDVPCDVKLVEKSFETDTNLNFQNLSVIGFRILLLKVAGFNLLMTLRLWSSRAKRSGSGVKQTLNFDLLKLAGDVESNPGPTSATMDWIWRILFLVGAATGAHSGPQVQLQESGGGLAQAGGSLRLSCAASGRTFSMGWFRQAPGKEREFVAAITYSGGSPYYASSVRGRFTISRDNAKNTVYLQMNSLKPEDTAVYYCAANPTYGSDWNAENWGQGTQVTVSSGSGGGGSGGGGSGGGGSFEQVQLQQPGAELVKPGASVKMSCKASGYAFSSYWINWMKQKPGQGLEWIGQIYPGDGDTNYNGKFKGRATLTADTSSSTAYMQLSSLTSEDSAVYFCARSITTVVGCAMDYWGQGTSVTVSSTREDLKNVFPPEVAVFEPSKAEIAHTQKATLVCLATGFYPDHVELSWWVNGKEVHSGVCTDPQPLKEQPALNDSRYCLSSRLRVSATFWQNPRNHFRCQVQFYGLSENDEWTQDRAKPVTQIVSAEAWGRADCGITSASYHQGVLSATILYEILLGKATLYAVLVSALVLMAMVKRKDSRGRAKRSGSGATNFSLLKQAGDVEENPGPSRGHMTEYKPTVRLATRDDVPRAVRTLAAAFADYPATRHTVDPDRHIERVTELQELFLTRVGLDIGKVWVADDGAAVAVWTTPESVEAGAVFAEIGPRMAELSGSRLAAQQQMEGLLAPHRPKEPAWFLATVGVSPDHQGKGLGSAVVLPGVEAAERAGVPAFLETSAPRNLPFYERLGFTVTADVEVPEGPRTWCMTRKPGA
B2: SEQ ID NO: 22177: trispecific SAR construct targeting CD19 and CD20 and coexpressing the ligand binding domain of NKG2D (protein)
chain: MALPVTALLLPLALLLHAARPLFNQEVQIPLTESYCGPCPKNWICYKNNCYQFFDESKNWYESQASCMSQNASLLKVYSKEDQDLLKLVKSYHWMGLVHIPTNGSWQWEDGSILSPNLLTIIEMQKGDCALYASSFKGYIENCSTPNTYICMQRTVGGGGSGGGGSGGGGSDLFNQEVQIPLTESYCGPCPKNWICYKNNCYQFFDESKNWYESQASCMSQNASLLKVYSKEDQDLLKLVKSYHWMGLVHIPTNGSWQWEDGSILSPNLLTIIEMQKGDCALYASSFKGYIENCSTPNTYICMQRTVGTGGGGSGGGGSGGGGSEFDIQMTQSPSSLSASVGDRVTITCKASDHINNWLAWYQQKPGQAPKLLIYGATTLETGVPSRFSGSGSGTDYTLTISSLQPEDFATYYCQQSWNTPWTFGQGTKLEIKRLEDLKNVFPPEVAVFEPSKAEIAHTQKATLVCLATGFYPDHVELSWWVNGKEVHSGVCTDPQPLKEQPALNDSRYCLSSRLRVSATFWQNPRNHFRCQVQFYGLSENDEWTQDRAKPVTQIVSAEAWGRADCGITSASYHQGVLSATILYEILLGKATLYAVLVSALVLMAMVKRKDSRGRAKRSGSGATNFSLLKQAGDVEENPGPTSATMDWIWRILFLVGAATGAHSGPQVQLQESGGGLAQAGGSLRLSCAASGRTFSMGWFRQAPGKEREFVAAITYSGGSPYYASSVRGRFTISRDNAKNTVYLQMNSLKPEDTAVYYCAANPTYGSDWNAENWGQGTQVTVSSGSGGGGSGGGGSGGGGSFEQVQLQQPGAELVKPGASVKMSCKASGYAFSSYWINWMKQKPGQGLEWIGQIYPGDGDTNYNGKFKGRATLTADTSSSTAYMQLSSLTSEDSAVYFCARSITTVVGCAMDYWGQGTSVTVSSTRIQNPDPAVYQLRDSKSSDKSVCLFTDFDSQTNVSQSKDSDVYITDKCVLDMRSMDFKSNSAVAWSNKSDFACANAFNNSIIPEDTFFPSSDVPCDVKLVEKSFETDTNLNFQNLSVIGFRILLLKVAGFNLLMTLRLWSSRAKRSGSGVKQTLNFDLLKLAGDVESNPGPSRGHMTEYKPTVRLATRDDVPRAVRTLAAAFADYPATRHTVDPDRHIERVTELQELFLTRVGLDIGKVWVADDGAAVAVWTTPESVEAGAVFAEIGPRMAELSGSRLAAQQQMEGLLAPHRPKEPAWFLATVGVSPDHQGKGLGSAVVLPGVEAAERAGVPAFLETSAPRNLPFYERLGFTVTADVEVPEGPRTWCMTRKPGA
B3: 22177 (protein)
chain: B2 chain

Columns and labels:
Format in all cases: cell-based
RAJI-CD19-KO cells = test: JNG assay, co-culture with RAJI-CD19-KO cells; conditions: co-culture with Raji-CD19-KO
Summary of the method: (§1)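 Jurkat NFAT-GFP (JNG) cells stably transduced with SARs by lentivirus, with drug selection where the construct carried a resistance gene, then co-cultured with target cells at E:T ~1:2 for ~4–18 h. % GFP-positive cells measured by FACS against parental JNG; +/- to 5+ correspond to ~5–50% GFP-positive.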

Nalm6 cells = test: JNG assay, co-culture with Nalm6 cells; conditions: for NFAT-GFP ASSAY: Nalm6: co-culture with Nalm6
Summary of the method: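 Read-out: % GFP-positive cells by flow cytometry after ~4 to 18 h coculture of SAR-transduced JNG cells with targets (E:T about 1:2). Scores reflect GFP induction above parental JNG controls: +/- ≈5%, + ≈10%, up to 5+ ≈50%.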

RAJI cells = test: JNG assay, co-culture with RAJI cells
Summary of the method: as §1

SKOV-3 cells = test: JNG assay, co-culture with SKOV-3 cells; conditions: for NFAT-GFP ASSAY: SKOV-3: co-culture with SKOV-3
Procedure: Cellular supernatant is collected and assayed for the induction of cytokines (e.g., IL2).
JNG (Jurkat cells expressing EGFP under an NFAT promoter) were infected with lentiviral vectors encoding different single chain and multi-chain SARs by spinfection in the presence of 8 µg/ml of Polybrene® (Sigma, Catalog no. H9268). The Jurkat-NFAT-GFP cells are engineered in such a way that the IL-2 promoter, which carries NFAT binding sites, is cloned upstream of the GFP gene. These cells have been used to study signaling via TCR and CAR. The different SARs were stably expressed in Jurkat NFAT-GFP cells by lentiviral mediated gene transfer, followed by selection with puromycin or blasticidin. No drug selection was used in case the construct lacked an antibiotic resistance gene. The SAR-expressing Jurkat-NFAT-GFP cells were cocultured with the target cells at E:T ratio of approximately 1:2 for approximately 4 hours to 18 hours. When the interaction between SIRs and their target antigen results in activation of the NFAT pathway, GFP expression is induced. […] GFP expression was monitored by FACS analysis. The Jurkat-NFAT-GFP (parental) cells were used as control. The structure of different constructs can be determined based on their names. […] The sequence of the other constructs in the table can be similarly determined from their names and by referring to the different Tables of this disclosure that provide the names and SEQ ID NO of the different modules. Alternatively, the composition and modular architecture of the different SAR constructs can be determined from their sequences by bioinformatics tools, including using nucleic acid and amino acids homology searches. A SAR is considered positive in the assay in case the SAR expressing Jurkat-NFAT-GFP cells show greater % GFP positive cells when cultured with the target cell line as compared to parental Jurkat-NFAT-GFP cells. […] In general, the number +/-, +, 2+, 3+, 4+, 5+ refer to approximately 5%, 10%, 20%, 30%, 40% and 50% GFP positive cells. The % of GFP induction in the above assay is dependent not only the relative strength of the SAR but also, among other factors, on the relative level of expression of the SAR in the JNG cells and the relative level of expression of the target antigen in the target cell line. To control for the difference in gene transduction efficiency of the different SAR constructs, the experiment was conducted with JNG cells transduced with SAR constructs co-expressing a drug resistance gene (e.g., puromycin or PAC) followed by drug selection to generate a stable population of SAR-expressing cells. It is to be noted that the drug resistance gene (e.g., PAC) in the SAR constructs is optional and in vivo studies were conducted with SAR constructs lacking the PAC gene.

L363 cells = test: JNG assay, co-culture with L363 cells; conditions: co-culture with L363
Summary of the method: as §1

Molecule	NFAT-GFP ASSAY: Raji-CD19-KO (RAJI-CD19-KO cells)	NFAT-GFP ASSAY: Nalm6 (Nalm6 cells)	NFAT-GFP ASSAY: Raji (RAJI cells; JNG cells expressing construct, co-culture with Raji)	NFAT-GFP ASSAY: SKOV-3 (SKOV-3 cells)	GFP induction / activity (Nalm6 cells; co-culture with Nalm6 cells)	GFP induction / activity (RAJI cells; co-culture with RAJI cells)	GFP induction / activity (SKOV-3 cells; co-culture with SKOV-3 cells)	NFAT-GFP ASSAY: L363 (L363 cells)
B1	2+ (refer to approximately 5%, 10%, 20%, 30%, 40% and 50% GFP positive cells)	3+ (refer to approximately 5%, 10%, 20%, 30%, 40% and 50% GFP positive cells)	2+ (refer to approximately 5%, 10%, 20%, 30%, 40% and 50% GFP positive cells)	2+ (refer to approximately 5%, 10%, 20%, 30%, 40% and 50% GFP positive cells)				
B2					robust activity	robust activity	robust activity	
B3	2+ (refer to approximately 5%, 10%, 20%, 30%, 40% and 50% GFP positive cells)	3+ (refer to approximately 5%, 10%, 20%, 30%, 40% and 50% GFP positive cells)		2+ (refer to approximately 5%, 10%, 20%, 30%, 40% and 50% GFP positive cells)				+ (refer to approximately 5%, 10%, 20%, 30%, 40% and 50% GFP positive cells)

Source: patent US20230212319A1, “NOVEL ANTIGEN BINDING DOMAINS AND SYNTHETIC ANTIGEN RECEPTORS INCORPORATING THE SAME” (University of Southern California, priority 2020, published 2023)
